Results reported in patent publication US20160009824A1 (Merck KGaA, published 2016).
Values belong to the binder of their own block, whether it stands above or below them.

Tests used:
[1] = biological target: T1, CD20 expressed on cells (human Daudi Burkitt's lymphoma cells); CD20-transfected mouse NS0 cells; human … (human, UniProt P11836 1-297); test: flow cytometry on Daudi cells (CD20+, CD52-), detection with TRITC F(ab')2 goat anti-human IgG Fcγ
T1 construct: whole, on cells; SU-DHL4 cells also express CD47 at low levels; also called NS0/CD20
T1 sequence (looked up): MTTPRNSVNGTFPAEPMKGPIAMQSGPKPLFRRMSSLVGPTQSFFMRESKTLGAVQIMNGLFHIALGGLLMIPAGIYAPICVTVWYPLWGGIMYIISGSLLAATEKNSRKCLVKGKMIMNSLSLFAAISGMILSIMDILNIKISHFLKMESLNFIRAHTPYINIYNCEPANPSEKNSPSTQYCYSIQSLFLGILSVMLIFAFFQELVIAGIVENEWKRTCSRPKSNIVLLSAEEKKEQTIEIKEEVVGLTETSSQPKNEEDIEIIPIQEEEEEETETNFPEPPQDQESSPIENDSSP

[2] = biological target: T1, CD20 expressed on cells (human Daudi …); test: flow cytometry on CD20-expressing cells (Daudi by legend paragraph 36 and paragraph 140; the method paragraph 139 names Ramos), detection with TRITC F(ab')2 goat anti-human IgG Fcγ
[3] = biological target: FcγRIII (CD16) on NK cells (human, UniProt P08637 17-254); test: cell-based or functional assay
[4] = biological target: T2, CD47 expressed on cells (human U937 histiocytic lymphoma cells; human SU-DHL4 cells; human A431 cells) (human, UniProt Q08722 19-323); test: flow cytometry on U937 cells (CD47+, CD20-), detection with TRITC F(ab')2 goat anti-human IgG Fcγ
T2 construct: whole, on cells

[5] = biological target: T1, CD20 expressed on cells (human Daudi …); test: flow cytometry on CD20-transfected NS0 cells, detection with TRITC F(ab')2 goat anti-human IgG Fcγ

Sequence of FcγRIII (CD16) on NK cells (P08637 17-254): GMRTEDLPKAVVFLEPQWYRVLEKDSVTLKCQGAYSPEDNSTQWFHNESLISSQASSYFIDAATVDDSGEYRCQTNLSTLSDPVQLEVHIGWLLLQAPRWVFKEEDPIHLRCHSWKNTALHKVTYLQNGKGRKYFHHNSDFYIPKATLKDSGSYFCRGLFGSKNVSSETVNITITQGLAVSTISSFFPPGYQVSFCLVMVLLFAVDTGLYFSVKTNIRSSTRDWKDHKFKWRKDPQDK

- binding result [1]: no binding (tested: 100 µg/ml)
B1: anti-CD52/anti-CD20 TetBiAb (bispecific antibody, human IgG1, kappa)
chain: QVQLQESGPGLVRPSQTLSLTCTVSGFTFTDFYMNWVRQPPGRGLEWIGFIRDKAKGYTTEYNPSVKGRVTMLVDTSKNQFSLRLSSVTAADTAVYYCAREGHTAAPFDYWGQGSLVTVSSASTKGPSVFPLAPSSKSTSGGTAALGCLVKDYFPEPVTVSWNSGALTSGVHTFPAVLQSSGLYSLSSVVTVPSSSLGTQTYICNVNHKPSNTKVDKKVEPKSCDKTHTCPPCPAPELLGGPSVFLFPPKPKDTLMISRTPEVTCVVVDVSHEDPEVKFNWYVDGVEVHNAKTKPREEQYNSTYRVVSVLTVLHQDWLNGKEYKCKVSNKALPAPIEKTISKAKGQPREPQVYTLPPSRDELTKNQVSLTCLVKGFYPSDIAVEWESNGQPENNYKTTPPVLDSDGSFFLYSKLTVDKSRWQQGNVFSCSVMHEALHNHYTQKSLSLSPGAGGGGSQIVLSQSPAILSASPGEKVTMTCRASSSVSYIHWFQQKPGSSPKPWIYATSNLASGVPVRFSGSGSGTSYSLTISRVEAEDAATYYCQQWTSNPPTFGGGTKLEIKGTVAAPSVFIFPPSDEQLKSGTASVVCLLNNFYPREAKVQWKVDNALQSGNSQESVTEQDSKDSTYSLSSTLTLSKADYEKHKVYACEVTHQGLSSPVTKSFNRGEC
light: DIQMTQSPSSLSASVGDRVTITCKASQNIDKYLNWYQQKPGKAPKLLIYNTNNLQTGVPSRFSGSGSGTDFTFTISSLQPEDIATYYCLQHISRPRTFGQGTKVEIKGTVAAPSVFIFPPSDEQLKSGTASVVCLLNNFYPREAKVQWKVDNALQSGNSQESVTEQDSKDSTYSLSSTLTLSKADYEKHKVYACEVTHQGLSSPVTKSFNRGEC
heavy: QVQLQQPGAELVKPGASVKMSCKASGYTFTSYNMHWVKQTPGRGLEWIGAIYPGNGDTSYNQKFKGKATLTADKSSSTAYMQLSSLTSEDSAVYYCARSTYYGGDWYFNVWGAGTTVTVSAASTKGPSVFPLAPSSKSTSGGTAALGCLVKDYFPEPVTVSWNSGALTSGVHTFPAVLQSSGLYSLSSVVTVPSSSLGTQTYICNVNHKPSNTKVDKKVEPKSC
notes: Hexameric TetBiAb from Campath and 2B8, IgG1 Fc

- EC50 (read off the curve) [2]: ~3 µg/mL
B2: anti-CD20/anti-CD16 TetBiAb (bispecific antibody)
chain: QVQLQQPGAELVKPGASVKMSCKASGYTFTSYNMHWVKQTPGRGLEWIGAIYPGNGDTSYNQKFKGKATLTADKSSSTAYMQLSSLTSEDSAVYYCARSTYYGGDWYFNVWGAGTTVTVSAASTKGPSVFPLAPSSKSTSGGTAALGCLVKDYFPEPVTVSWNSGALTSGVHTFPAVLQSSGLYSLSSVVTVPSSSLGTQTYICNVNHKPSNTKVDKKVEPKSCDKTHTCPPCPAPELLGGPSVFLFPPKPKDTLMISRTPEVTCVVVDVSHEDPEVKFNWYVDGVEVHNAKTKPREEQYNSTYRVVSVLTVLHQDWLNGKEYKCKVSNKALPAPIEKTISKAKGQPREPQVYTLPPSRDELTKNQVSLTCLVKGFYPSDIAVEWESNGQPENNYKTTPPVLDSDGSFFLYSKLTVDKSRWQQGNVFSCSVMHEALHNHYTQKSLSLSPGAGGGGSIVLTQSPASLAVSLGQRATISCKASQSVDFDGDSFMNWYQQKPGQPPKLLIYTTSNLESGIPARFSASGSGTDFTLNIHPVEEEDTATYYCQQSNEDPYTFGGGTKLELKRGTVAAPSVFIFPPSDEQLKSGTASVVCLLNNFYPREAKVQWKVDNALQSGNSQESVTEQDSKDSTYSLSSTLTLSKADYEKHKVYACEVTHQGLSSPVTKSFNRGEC
light: QIVLSQSPAILSASPGEKVTMTCRASSSVSYIHWFQQKPGSSPKPWIYATSNLASGVPVRFSGSGSGTSYSLTISRVEAEDAATYYCQQWTSNPPTFGGGTKLEIKRGTVAAPSVFIFPPSDEQLKSGTASVVCLLNNFYPREAKVQWKVDNALQSGNSQESVTEQDSKDSTYSLSSTLTLSKADYEKHKVYACEVTHQGLSSPVTKSFNRGEC
heavy: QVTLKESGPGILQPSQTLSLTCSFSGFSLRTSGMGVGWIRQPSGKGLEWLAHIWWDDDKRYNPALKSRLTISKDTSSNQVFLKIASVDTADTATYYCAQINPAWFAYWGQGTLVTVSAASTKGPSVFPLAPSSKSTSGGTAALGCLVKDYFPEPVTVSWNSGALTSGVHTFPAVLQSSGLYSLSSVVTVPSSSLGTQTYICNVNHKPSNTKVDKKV
notes: Hexameric TetBiAb from 2B8 and 3G8, IgG1 Fc
- antibody-dependent cell-mediated cytotoxicity (ADCC), LDH release from Ramos cells with NK effector cells [3]: 10 fold

- EC50 (read off the curve) [1]: ~5 µg/mL
B3: anti-CD20/anti-CD52 TetBiAb (bispecific antibody, human IgG1, kappa)
chain: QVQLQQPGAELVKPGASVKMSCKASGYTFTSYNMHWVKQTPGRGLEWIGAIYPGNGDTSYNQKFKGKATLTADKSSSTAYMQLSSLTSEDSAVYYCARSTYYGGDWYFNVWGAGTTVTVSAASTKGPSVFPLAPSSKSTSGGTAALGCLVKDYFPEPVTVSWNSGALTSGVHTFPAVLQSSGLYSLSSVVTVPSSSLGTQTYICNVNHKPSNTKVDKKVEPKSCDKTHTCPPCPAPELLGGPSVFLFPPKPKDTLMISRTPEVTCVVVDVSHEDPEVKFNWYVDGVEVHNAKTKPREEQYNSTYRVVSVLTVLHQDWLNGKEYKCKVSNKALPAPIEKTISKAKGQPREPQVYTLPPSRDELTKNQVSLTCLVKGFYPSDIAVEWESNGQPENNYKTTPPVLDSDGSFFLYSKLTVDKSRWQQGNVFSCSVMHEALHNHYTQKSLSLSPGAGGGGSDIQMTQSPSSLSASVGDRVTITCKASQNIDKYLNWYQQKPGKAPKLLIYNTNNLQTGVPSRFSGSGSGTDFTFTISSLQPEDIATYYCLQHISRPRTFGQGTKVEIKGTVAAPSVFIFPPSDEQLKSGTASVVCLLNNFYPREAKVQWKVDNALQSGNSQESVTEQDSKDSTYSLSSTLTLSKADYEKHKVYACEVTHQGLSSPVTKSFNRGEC
light: QIVLSQSPAILSASPGEKVTMTCRASSSVSYIHWFQQKPGSSPKPWIYATSNLASGVPVRFSGSGSGTSYSLTISRVEAEDAATYYCQQWTSNPPTFGGGTKLEIKRGTVAAPSVFIFPPSDEQLKSGTASVVCLLNNFYPREAKVQWKVDNALQSGNSQESVTEQDSKDSTYSLSSTLTLSKADYEKHKVYACEVTHQGLSSPVTKSFNRGEC
heavy: QVQLQESGPGLVRPSQTLSLTCTVSGFTFTDFYMNWVRQPPGRGLEWIGFIRDKAKGYTTEYNPSVKGRVTMLVDTSKNQFSLRLSSVTAADTAVYYCAREGHTAAPFDYWGQGSLVTVSAASTKGPSVFPLAPSSKSTSGGTAALGCLVKDYFPEPVTVSWNSGALTSGVHTFPAVLQSSGLYSLSSVVTVPSSSLGTQTYICNVNHKPSNTKVDKKVEPKSC
notes: Hexameric TetBiAb from 2B8 and Campath, IgG1 Fc

- EC50 (read off the curve) [4]: ~10 µg/mL
- binding result [5]: binds
B4: anti-CD20/anti-CD47 TetBiAb (bispecific antibody, human IgG1, kappa)
chain: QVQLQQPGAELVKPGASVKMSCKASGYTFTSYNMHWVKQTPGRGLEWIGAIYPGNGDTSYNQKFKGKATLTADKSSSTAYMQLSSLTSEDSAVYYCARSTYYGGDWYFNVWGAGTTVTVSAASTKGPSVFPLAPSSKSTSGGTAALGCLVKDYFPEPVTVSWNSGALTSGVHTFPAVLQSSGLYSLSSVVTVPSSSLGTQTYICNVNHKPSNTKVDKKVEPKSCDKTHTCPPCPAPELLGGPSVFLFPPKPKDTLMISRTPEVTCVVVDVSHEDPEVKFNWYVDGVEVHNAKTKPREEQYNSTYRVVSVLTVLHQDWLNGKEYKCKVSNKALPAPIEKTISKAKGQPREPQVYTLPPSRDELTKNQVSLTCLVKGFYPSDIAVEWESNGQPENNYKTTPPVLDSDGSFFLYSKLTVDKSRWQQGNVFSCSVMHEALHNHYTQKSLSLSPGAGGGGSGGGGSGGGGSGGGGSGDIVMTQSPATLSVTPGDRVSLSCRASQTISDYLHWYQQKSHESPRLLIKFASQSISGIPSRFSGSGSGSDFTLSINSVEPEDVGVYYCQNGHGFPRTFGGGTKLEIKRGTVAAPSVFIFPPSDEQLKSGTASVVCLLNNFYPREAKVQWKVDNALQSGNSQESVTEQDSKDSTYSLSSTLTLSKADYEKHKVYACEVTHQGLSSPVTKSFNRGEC
light: QIVLSQSPAILSASPGEKVTMTCRASSSVSYIHWFQQKPGSSPKPWIYATSNLASGVPVRFSGSGSGTSYSLTISRVEAEDAATYYCQQWTSNPPTFGGGTKLEIKRGTVAAPSVFIFPPSDEQLKSGTASVVCLLNNFYPREAKVQWKVDNALQSGNSQESVTEQDSKDSTYSLSSTLTLSKADYEKHKVYACEVTHQGLSSPVTKSFNRGEC
heavy: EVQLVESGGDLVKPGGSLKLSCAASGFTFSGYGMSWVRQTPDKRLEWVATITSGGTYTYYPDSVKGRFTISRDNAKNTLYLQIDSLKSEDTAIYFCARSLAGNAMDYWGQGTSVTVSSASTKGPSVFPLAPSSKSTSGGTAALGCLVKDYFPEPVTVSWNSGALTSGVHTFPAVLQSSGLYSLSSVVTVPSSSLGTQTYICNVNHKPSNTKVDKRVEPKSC
notes: Hexameric TetBiAb from 2B8 and B6H12, IgG1 Fc; Alexa 488-labelled in the SU-DHL4 assay
